B1: PT-001 (peptide)
peptide: DISVLMKEYD
notes: 10-mer; also called transporter peptide
B2: PT-022 (peptide)
peptide: DISLLMKEYD
notes: as for B1
B3: PT-027 (peptide)
peptide: DISVLCKEYD
notes: as for B1
B4: PT-025 (peptide)
peptide: DISVLDKEYD
notes: as for B1
B5: PT-023 (peptide)
peptide: DISVIMKEYD
notes: as for B1
B6: PT-062 (peptide)
peptide: NISVLMKEYD
notes: as for B1
B7: PT-031 (peptide)
peptide: DISVLMKEYN
notes: as for B1
B8: PT-051 (peptide)
peptide: DISVLSKEYD
notes: as for B1
B9: PT-029 (peptide)
peptide: DISVLEKEYD
notes: as for B1
B10: PT-057 (peptide)
peptide: DISVLMKETD
notes: as for B1
B11: PT-055 (peptide)
peptide: DISVLMKEFD
notes: as for B1
B12: PT-065 (peptide)
peptide: DISVLMKHYD
notes: as for B1
B13: PT-067 (peptide)
peptide: DIHVLDKEYD
notes: as for B1
B14: PT-064 (peptide)
peptide: DISVLLKEYD
notes: as for B1
B15: PT-028 (peptide)
peptide: DISVLKKEYD
notes: as for B1
B16: PT-054 (peptide)
peptide: DISVLMKDYD
notes: as for B1
B17: PT-014 (peptide)
peptide: DIPVLMKEYD
notes: as for B1
B18: PT-024 (peptide)
peptide: DISVVMKEYD
notes: as for B1
B19: PT-034 (peptide)
peptide: DISVLMKEYQ
notes: as for B1
B20: PT-004 (peptide)
peptide: DIDVLMKEYD
notes: as for B1
B21: PT-017 (peptide)
peptide: DITVLMKEYD
notes: as for B1
B22: PT-033 (peptide)
peptide: DISVLMKEYE
notes: as for B1
B23: PT-030 (peptide)
peptide: DISVLQKEYD
notes: as for B1
B24: PT-026 (peptide)
peptide: DISVLNKEYD
notes: as for B1
B25: PT-063 (peptide)
peptide: DISELMKEYD
notes: as for B1
B26: PT-011 (peptide)
peptide: DILVLMKEYD
notes: as for B1
B27: PT-056 (peptide)
peptide: DISVLMKESD
notes: as for B1
B28: PT-008 (peptide)
peptide: DIHVLMKEYD
notes: as for B1
B29: PT-066 (peptide)
peptide: DITVLCKEYN
notes: as for B1

Molecular target: T1, TfR protein (Acro Biosystems. Cat. No. CD1-H5243) (UniProt P02786 89-760)
T1 construct: Bought recombinant protein; also called TfR1; transferrin receptor
Assay: FOPPR (fiber optic particle plasmon resonance); peptide coupled to chip, TfR protein loaded at 0.5-1000 ng/mL
Description: In this Example, the binding affinity of the transporter peptides disclosed herein to TfR was analyzed by fiber optic particle plasmon resonance (FOPPR). In this Example, different amino acid sites of the transporter peptide were further substituted with different amino acids of the same property to anaylze binding affinity of these variant peptides to the transferrin receptor.
To determine the affinity of the targeting peptide to TfR1, a fiber optic particle plasmon resonance (FOPPR) affinity study was performed according to the manufacturer's instruction. Briefly, 80 μL of tested peptide (10 μg/ml) dissolved in PBS buffer (pH 7.4) was pipetted into the EDC/NHS preactivated surface of standard chip NanoAu-MM (Taipei, Taiwan) for peptide conjugating to the carboxyl group of the surface sensor chip. TfR protein (Acro Biosystems. Cat. No. CD1-H5243, Newark, DE, USA) was loading to the chip with at the concentrations of 0.5 ng/mL, 1 ng/mL, 10 ng/mL, 100 ng/mL, 500 ng/mL, and 1000 ng/mL, respectively. Based on the light intensity change, the molecules interaction parameters of KD were calculated by the FOPPR system D200 (Id M3) (Taipei, Taiwan).

T1 sequence (P02786 89-760 limits assumed): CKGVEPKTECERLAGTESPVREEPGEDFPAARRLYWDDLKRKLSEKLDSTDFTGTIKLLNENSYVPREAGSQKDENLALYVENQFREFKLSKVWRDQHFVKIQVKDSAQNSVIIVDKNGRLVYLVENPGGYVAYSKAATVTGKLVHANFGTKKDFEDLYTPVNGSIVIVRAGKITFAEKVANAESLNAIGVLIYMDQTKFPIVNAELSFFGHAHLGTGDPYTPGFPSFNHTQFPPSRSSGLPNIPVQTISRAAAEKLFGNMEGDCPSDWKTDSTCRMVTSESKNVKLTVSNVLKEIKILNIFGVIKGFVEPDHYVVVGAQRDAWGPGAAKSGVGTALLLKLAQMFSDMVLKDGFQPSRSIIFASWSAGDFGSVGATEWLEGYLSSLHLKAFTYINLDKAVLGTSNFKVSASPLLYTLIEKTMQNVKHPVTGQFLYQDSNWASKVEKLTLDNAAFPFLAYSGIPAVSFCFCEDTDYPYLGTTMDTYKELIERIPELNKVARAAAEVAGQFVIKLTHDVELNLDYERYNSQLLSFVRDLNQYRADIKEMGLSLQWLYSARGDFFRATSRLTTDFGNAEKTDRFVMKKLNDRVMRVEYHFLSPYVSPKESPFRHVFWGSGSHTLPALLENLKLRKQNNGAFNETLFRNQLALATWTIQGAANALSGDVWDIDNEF

Binder	Kd
B1	71 nM
B2	36.6 nM
B3	0.27 nM
B4	0.43 nM
B5	22.8 nM
B6	1.3 nM
B7	4.45 nM
B8	70 nM
B9	3.62 nM
B10	1.92 nM
B11	6.08 nM
B12	0.57 nM
B13	0.45 nM
B14	10.5 nM
B15	5.14 nM
B16	59.3 nM
B17	52.3 nM
B18	8.22 nM
B19	39.3 nM
B20	18.5 nM
B21	4.77 nM
B22	261 nM
B23	10.3 nM
B24	26 nM
B25	16.6 nM
B26	3.23 nM
B27	4.1 nM
B28	8.07 nM
B29	86.1 nM
